# Test: yeast display, Sf9 membrane polyspecificity reagent, FACS + sequencing; frameworks hold sequencing errors
# How it was run: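 Polyreactivity labels are assigned by the sorting gate from which each nanobody was recovered. The gates were low and high (top ~1%), set on anti-HA fluorescence for expression and streptavidin fluorescence for reagent binding. Before sorting, galactose-induced (36–48 hours) yeast display cells were stained for 1 hour at 4 °C with 10% biotinylated, detergent-solubilized Sf9 membrane reagent.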
row,Sequence,polyreactivity (PSR sort gate)
1,QVQLVESGGGLVQAGGSLRLSCAASGRIFRPNAMGWYRPAPGKERELVAAISYSGATTYYADSVKGRFTISRDNAKNTVYLQMNSLKPEVTAVYYCAAGGTSGQEFGYWGQGTQVTVSS,low polyreactivity
2,QVQLVESGGGLVQAGGSLRLSCAASGRIFRRNAMGWYRQAPGKERELVAGIDSSGGSTYYADSVKGRFTISRDNAKNSVYLQMNSLKPEDTAVYYCNAVGYSQGYDYWGQGTQVTVSS,high polyreactivity
3,QVQLVESGGGLVQAGGSLRLSCAASGRIFRRYAMGWYRQAPGKEREFVAAISTSGGSTYYADSVKGRFTISRDNAKNTVYLQMNSLKPEDTAVYYCAKRFIYGRYNYWGQGTQVTVSS,high polyreactivity
4,QVQLVESGGGLVQAGGSLRLSCAASGRIFRRYAMGWYRQAPGKERELVAAISSRGGRTYYADSVKGRFTISRDNAKNTVYLQMNSLKPEETAVYYCNARSFRWCRWLRLPFNYWGQGTQVTVSS,high polyreactivity
5,QVQLVESGGGLVQAGGSLRLSCAASGRIFRRYAMGWYRQAPGKERELVAAISVTGGRTYYADSVKGRFTISRDNAKNTVYLQMNSLKPEDTAVYYCNTLQYQERYAYDYWGQGTQVTVSS,high polyreactivity
6,QVQLVESGGGLVQAGGSLRLSCAASGRIFRRYAMGWYRQAPGKERELVASISSGGSTNYADSVKGRFTISRDNAKNTVYLQMNSLKPEDTAVYYCAAAYPWQTRYSSPYYYWGQGTQVTVSS,high polyreactivity
7,QVQLVESGGGLVQAGGSLRLSCAASGRIFRSIAMGWYRQSPGKERELVAVINSDDSTYYADSVKGRFTISRDNAKNTVYLQMNSLKPEDTAVYYCAAEPQYTRHMDSWGQGTQVTVSS,low polyreactivity
8,QVQLVESGGGLVQAGGSLRLSCAASGRIFRSNAMGWYRQAPGKERELVATITRSGGSTYYADSVKGRFTISRDNAKNTVYLQMNSLKPEDTAVYYCNAVFGSAYRAQRIMGYWGQGTQVTVSS,high polyreactivity
9,QVQLVESGGGLVQAGGSLRLSCAASGRIFRSNAMGWYRQSPGKESELVAAITWRGRTYYADSVKGRFTISRDNAKNTVYLQMNSLKPEDTAVYYCNAYVRYGYDYWGHGTQVTVSS,high polyreactivity
10,QVQLVESGGGLVQAGGSLRLSCAASGRIFRSYVMGWYRQAPGKERELVAVISKNGGTTYYADSVKGRFTISRDNAKNTVYFQRNSLKPEDTAVYYCAARRLGYYRKVKELDYWGQGTQVTVSS,high polyreactivity
11,QVQLVESGGGLVQAGGSLRLSCAASGRIFRTNAMGWYRQAPGKEREFVAAISKDGGRTYYADSVKGRFTISRDNAKNTVYLQMNSLKPEDTAVYYCNVLVKHSTTTYSTYDYWGQGTQVTVSS,high polyreactivity
12,QVQLVESGGGLVQAGGSLRLSCAASGRIFRTYAMGWYRQAPGKERELVAAITWSGGSTYYADSVKGRFTISRDNAKNTVYLQMNSLKPEDTAVYYCNALTPGYRIYDYWGQGTQVTVSS,high polyreactivity
13,QVQLVESGGGLVQAGGSLRLSCAASGRIFRTYAMGWYRQAPGKERELVAGITWRGTSTYYADYVKGRFTISRDNAKNTVYLQLNSLKPEDTAVYYCAAEWKGYYVHDYWGQGTQVTVSS,high polyreactivity
14,QVQLVESGGGLVQAGGSLRLSCAASGRIFRVYAMGWYRQAPGKERELVAAIRWTGGSTYYADSVKGRFKISRDNAKNTVYLQMNSLKPEDTAVYYCAAGRYYSDGSRTIYDYWGQGTQVTVSS,low polyreactivity
15,QVQLVESGGGLVQAGGSLRLSCAASGRIFRVYTMGWYIQAPGKERELVAAISRGGTTTYADSVKGRFTISRDNAKNTVYLQMNSLKPEYTAVYYCNARGWFRGEFDYWGQGTQVTVSS,high polyreactivity
16,QVQLVESGGGLVQAGGSLRLSCAASGRIFRWYAMGWYRQAPGKERELVASISSGGSTNYADSVKGRFTISRDNAKNTVYLQLNSLKPEDTAVYYCAADFATPGPAYDYWGEGTQVTVSS,low polyreactivity
17,QVQLVESGGGLVQAGGSLRLSCAASGRIFRWYAMGWYRQAPGKERELVASITWNGGSTYYADSVKGRFTISRDNAKNTVYLQMNSLKPEDTAVYYCAVAFYRGPEMGYWGQGTQVTVSS,high polyreactivity
18,QVQLVESGGGLVQAGGSLRLSCAASGRIFRWYAMGWYRQAPGKERELVATITRSGGSTYCADSVKGRFTISRDNAKNTVYLQMNSLKPEDTAVYYCAARWRLTPSWLPYVQSSAGYDYWGQGTQVTVSS,high polyreactivity
19,QVQLVESGGGLVQAGGSLRLSCAASGRIFRWYPMGWYRQAPGKESELDATISSTGGSTYYADSVKGRFTISRDNAKNTVYIQMNSLKPEVTAVYYCNAVVYGIFLYAWYDYWGQGTQVTVSS,low polyreactivity
20,QVQLVESGGGLVQAGGSLRLSCAASGRIFRWYTMGWYRQAPGKEREFVAAITWSDTSTSYADSVKGPFTISRDNAKNTVYLQMNSLKPEDTAVYYCAAPTHLHGHGNQNEFYYWGQGTQVTVSS,low polyreactivity
21,QVQLVESGGGLVQAGGSLRLSCAASGRIFRYNAMGWYRQAPGKERELVAAISQSGGSTYYADSVKGRFTISRDNAMNTVYLQMNSLKPEDTAVYYCGADNYFLGDEDYWGQGTQGTVSS,high polyreactivity
22,QVQLVESGGGLVQAGGSLRLSCAASGRIFRYNAMGWYRQAPGKERELVAAISRGGSSTYYADSVKGRFTISRDNAKNTVYLQMNSLKPEDTAVYYCNARSVVREFNYWGQGTQVTVSS,high polyreactivity

row,Sequence,polyreactivity (PSR sort gate)
1,QVQLVESGGGLVQAGGSLRLSCAASGRIFRYNAMGWYRQAPGKERELVAAISWSGGSTYYADSVKGRFTISRDNAKNTVYLQMNSLKPEDTAVYYCNARYRYSVTGYDYWGQGTQVTVSS,high polyreactivity
2,QVQLVESGGGLVQAGGSLRLSCAASGRIFRYNAMGWYRQAPGKERELVAAITNGGSTNYADSVKGRFTISRDNAKNTVYLQMNSLKPEDTAVYYCAAEGNGYLVSTWWVRYEYWGQGTQVTVSS,low polyreactivity
3,QVQLVESGGGLVQAGGSLRLSCAASGRIFRYYAMGWFRQAPGKERELVASISRRGGSTNYADSVKGRFTISRDNAKNTVDLQMNSLKPEDTAVYYCNAENSSPRGLYNYWGQGTQVTVSS,high polyreactivity
4,QVQLVESGGGLVQAGGSLRLSCAASGRIFRYYAMGWSRQAPGKERELVADISRRGGSTYYADSVKGRFTISRDNAKNTVYLQMNSLKPEDTAVYYCNARWYRTGSTYHEDYWGQGTQVTLSS,high polyreactivity
5,QVQLVESGGGLVQAGGSLRLSCAASGRIFRYYAMGWYRQAPGKERELVAAISSGGSTYYADSVKGRFTISRDNAKNTVYLQMNSLKQEDTAVYYCAADRRYSYNWGHGTQVTVSS,high polyreactivity
6,QVQLVESGGGLVQAGGSLRLSCAASGRIFRYYAMGWYRQAPGKERELVAAISSSGGSTYYADSVKGRFTISRDNAKNTVDLQMNSLKPEDTAVYYCAAKYSRRSSVSYYYWGQGTQVTVSS,high polyreactivity
7,QVQLVESGGGLVQAGGSLRLSCAASGRIFRYYAMGWYRQAPGKERELVAAISYSTGGTYYADSVKGRFTISRDNAKNTVYLQMNSLIPEDTAVYYCAARGPLDRYGYWGQGTQVTVSS,high polyreactivity
8,QVQLVESGGGLVQAGGSLRLSCAASGRIFRYYAMGWYRQAPGKERELVAAITRGGSTNYADSVKGRFTISRDNAKNTVYLLMNSLKPEVTAVDYCNAPYWKSRFRAYYHWGQGTQVTVSS,high polyreactivity
9,QVQLVESGGGLVQAGGSLRLSCAASGRIFRYYAMGWYRQAPGKERELVAAITRGGSTNYADSVKGRFTISRDNAKNTVYLQMNSLKPEDSAVFYCATRESCYPRWMDYWGQGTQVTVSS,high polyreactivity
10,QVQLVESGGGLVQAGGSLRLSCAASGRIFRYYAMGWYRQAPGKERELVARITSGGSTYYADSVKGRFTLSRDNAKNTVYLQMNSLKPEDTAVYYCAAETTRWHPWYDYWGQGTQVTVSS,high polyreactivity
11,QVQLVESGGGLVQAGGSLRLSCAASGRIFRYYAMGWYRQAPGKERELVASIARRGGSTNYADSVKGRFTISRDNAKNTVYVQMNSLKPEDTAVYYINAENWSPRGLYNYWGQGTQVTLSS,high polyreactivity
12,QVQLVESGGGLVQAGGSLRLSCAASGRIFRYYAMGWYRQAPGKERELVATISRSGGSTFYADSVKGRFTISRDNGKNPVYLQMNSLKPEDSAVYYCNARYQTGCYGYWGQGTQVTVSS,high polyreactivity
13,QVQLVESGGGLVQAGGSLRLSCAASGRIFRYYAMGWYRQAPGKESELVAAINSGGSTKYADSVKGRFTISRDNAKNTVYLQMNSLKPEDTAVYYCNKDHAFSRYWYGGFDYWGQGTQVTVSS,high polyreactivity
14,QVQLVESGGGLVQAGGSLRLSCAASGRIFRYYAMGWYRQAPGKESELVAAITASGGSTYYADSVKGRFTISRDNAKNTVYLQMNSLKPEDTAVYYCATEYVVYRSWVPKYGYWGQGTQVTVSS,high polyreactivity
15,QVQLVESGGGLVQAGGSLRLSCAASGRIFRYYAMGWYRQAPPKERELVAAIRWSGGRTYYADSVKGRFTISRDNAKNTVYLQMNSLKPEDTAVYYCAADSPYKMDYWGQGTQVTVSS,high polyreactivity
16,QVQLVESGGGLVQAGGSLRLSCAASGRIFRYYAMGWYRQATGKERELVAAISRSGGSTYYADSVKGRFTISRDNAKNTVYLQMNSLKPEDTAVYYCNAQWRSTDPYPPGYDYWGQGTQVTVSS,high polyreactivity
17,QVQLVESGGGLVQAGGSLRLSCAASGRIFRYYPMGWYRQATGKERELVAAITASGGSTYYADSVKGRFTISRDNAKNTVYLQMNSLKPEDTAVYYCAARVAQVAYPDGYWGQGTQVTVSS,high polyreactivity
18,QVQLVESGGGLVQAGGSLRLSCAASGRIFRYYTMGWYRQAPGKERELVAAISGRGGRTYYADSVKGRFTISRDNAKNTVYLQMNSLKPEDTAVYYCNAYDHPIYRLDYWGQGTQVTVSS,high polyreactivity
19,QVQLVESGGGLVQAGGSLRLSCAASGRIFSANAMGWYRQAPRKERELVAGIDSGGSTNYADSVKGRFTISRDNSKNTVYLQMNSLKPEDTAVYYCNAEDHKYEYDSWGQGTQVTVSS,low polyreactivity
20,QVQLVESGGGLVQAGGSLRLSCAASGRIFSAYAIGCYRQSPWKERELVSAISRSGGRTYYADSVKGSFTISRDNAKNTVYLQMNSLKPEDTAVYYCAAARFAIVRGDYCGQGTQVTVSS,high polyreactivity
21,QVQLVESGGGLVQAGGSLRLSCAASGRIFSAYAMGLYRQAPGKERELVAAITSVGSTKYADSVKGRFTISRDNAKNTVYLQMNSLIPEDTAVYYCAAEYTRSFYIYYRFGYWGQGTQVTVSS,high polyreactivity

# — the nanobody polyreactivity screen of Harvey et al. (2022)
